Reference: article PMC6529005, “FMRP - G-quadruplex mRNA - miR-125a interactions: Implications for miR-125a mediated translation regulation of PSD-95 mRNA”

Legend:
FMRP S500D [1] = target: T1, FMRP S500D (UniProt Q06787 1-632, S500D); test: fluorescence titration (2AP); 150 mM KCl, 1 uM BSA; Fluorescence: 10 mM cacodylic acid pH 6.5, 150 mM KCl, 1 uM BSA, 200 nM RNA; EMSA: 0.5x TBE native gels at 4 C (5 mM KCl for PSD-95 RNAs), incubation at room te
FMRP S500D [2] = target: T1, FMRP S500D; test: EMSA; 200 nM RNA, complete at 1:2; Kd estimated low nM; Fluorescence: 10 mM cacodylic acid pH 6.5, 150 mM KCl, 1 uM BSA, 200 nM RNA; EMSA: 0.5x TBE native gels at 4 C (5 mM KCl for PSD-95 RNAs), incubation at room te
FMRP RGG peptide [3] = target: FMRP RGG peptide (UniProt Q06787); test: EMSA; 200 nM RNA, up to 1:2; Fluorescence: 10 mM cacodylic acid pH 6.5, 150 mM KCl, 1 uM BSA, 200 nM RNA; EMSA: 0.5x TBE native gels at 4 C (5 mM KCl for PSD-95 RNAs), incubation at room temperature 15-20 min; pull-down: RIPA (150 mM NaCl, 50 mM Tris pH 8.0), room temperature
FMRP S500D [4] = target: T1, FMRP S500D; test: EMSA; 200 nM RNA, up to 1:2; Fluorescence: 10 mM cacodylic acid pH 6.5, 150 mM KCl, 1 uM BSA, 200 nM RNA; EMSA: 0.5x TBE native gels at 4 C (5 mM KCl for PSD-95 RNAs), incubation at room te
FMRP RGG peptide [5] = target: FMRP RGG peptide (UniProt Q06787); test: EMSA; 5 mM KCl; Fluorescence: 10 mM cacodylic acid pH 6.5, 150 mM KCl, 1 uM BSA, 200 nM RNA; EMSA: 0.5x TBE native gels at 4 C (5 mM KCl for PSD-95 RNAs), incubation at room temperature 15-20 min; pull-down: RIPA (150 mM NaCl, 50 mM Tris pH 8.0), room temperature
FMRP S500D [6] = target: T1, FMRP S500D; test: EMSA; 200 nM RNA, similar to miR-125a; Fluorescence: 10 mM cacodylic acid pH 6.5, 150 mM KCl, 1 uM BSA, 200 nM RNA; EMSA: 0.5x TBE native gels at 4 C (5 mM KCl for PSD-95 RNAs), incubation at room te

GGGAGGGAGGGUGGG (structured_RNA, A4 replaced by 2-aminopurine) [PSD-95 Q2 4-2AP]
Kd (FMRP S500D [1]): 100 nM

UCCCUGAGACCCUUUAACCUGUGA (ssRNA) [miR-125a]
binding result (FMRP S500D [2]): binds
binding result (FMRP RGG peptide [3]): no binding

UAGGUAGUUUCAUGUUGUUGGG (ssRNA) [miR-196a-1]
binding result (FMRP S500D [4]): binds

GGGAAAAGGGAGGGAUGGGUCUAGGG (structured_RNA) [PSD-95 Q1]
binding result (FMRP RGG peptide [5]; G-quadruplex, multiple conformations): binds

UCCCUGAGACCCUAACUUGUGA (ssRNA) [miR-125b]
binding result (FMRP S500D [6]): binds

UCCCUGAGACCGUUUAACCUGUGA (ssRNA) [miR-125a-Mut2]
binding result (FMRP S500D [6]): binds

B1: PSD-95 Q1-Q2 (structured_RNA)
RNA: GGGAAAAGGGAGGGAUGGGUCUAGGGAGUGGGAAAUGCGGGAGGGAGGGUGGG
binding result (FMRP RGG peptide [5]; two G-quadruplexes): binds

GGGAGGGAGGGUGGG (structured_RNA) [PSD-95 Q2]
binding result (FMRP RGG peptide [5]; G-quadruplex): binds

GGGAAAAGGGAGGGAUGGG (structured_RNA, A11 replaced by 2-aminopurine) [PSD-95 Q11234 11-2AP]
Kd (FMRP S500D [1]): 66 nM

UGGAGUGUGACAAUGGUGUUUG (ssRNA) [miR-122]
binding result (FMRP S500D [4]): no binding
